{
  "source": "paper PMC10563049",
  "molecular_target": "recombinant VE-cadherin-Fc (UniProt P33151)",
  "assay": "atomic force microscopy",
  "data": [
    {"substance": "recombinant VE-cadherin-Fc (from UniProt P33151) (Fc fusion)", "values": [
      {"measurement": "binding activity (binding probability by AFM)", "value": 61, "unit": "%"}
    ]}
  ]
}
